PMC2666446 (Journal of molecular biology, 2008)
Residue numbers refer to the chain shown, from its start. Numbers in names are those of the source. Read-outs that look alike come from different tables or passages of the source.

T1: MutS (Escherichia coli, UniProt P23909 1-853)
T1 sequence: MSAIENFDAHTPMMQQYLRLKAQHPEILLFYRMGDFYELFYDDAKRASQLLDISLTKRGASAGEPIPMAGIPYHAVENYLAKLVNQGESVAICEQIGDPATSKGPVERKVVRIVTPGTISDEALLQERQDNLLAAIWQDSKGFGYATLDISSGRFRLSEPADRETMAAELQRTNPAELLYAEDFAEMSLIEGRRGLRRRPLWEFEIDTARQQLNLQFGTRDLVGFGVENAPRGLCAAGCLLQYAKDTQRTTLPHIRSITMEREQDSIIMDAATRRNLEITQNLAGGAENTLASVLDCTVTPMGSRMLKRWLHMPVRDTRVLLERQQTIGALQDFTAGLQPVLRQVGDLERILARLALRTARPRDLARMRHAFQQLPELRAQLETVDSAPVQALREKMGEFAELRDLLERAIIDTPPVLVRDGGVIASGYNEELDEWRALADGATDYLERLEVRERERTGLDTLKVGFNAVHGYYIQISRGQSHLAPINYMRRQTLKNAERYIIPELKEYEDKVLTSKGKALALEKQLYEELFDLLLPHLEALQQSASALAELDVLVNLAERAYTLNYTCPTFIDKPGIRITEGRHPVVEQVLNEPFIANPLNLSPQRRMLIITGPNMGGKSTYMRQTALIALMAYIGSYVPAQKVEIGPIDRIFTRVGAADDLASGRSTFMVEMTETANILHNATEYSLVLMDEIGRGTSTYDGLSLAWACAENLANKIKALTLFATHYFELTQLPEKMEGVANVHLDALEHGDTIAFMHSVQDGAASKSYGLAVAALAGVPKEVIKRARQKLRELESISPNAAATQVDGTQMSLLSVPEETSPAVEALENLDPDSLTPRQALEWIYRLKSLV

B1: 30-CC (dsDNA)
DNA 1: AACTGCCACGCACCAGTGTCAGCGTCGTAT
DNA 2: ATACGACGCTGACACTGGTGCCTGGCAGTT
B2: 30-TG (dsDNA)
DNA 1: B1 DNA 1 with C9T
DNA 2: B1 DNA 2 with C22G
B3: 30-AC (dsDNA)
DNA 1: B1 DNA 1 with C9A
DNA 2: B1 DNA 2
B4: 30-TT (dsDNA)
DNA 1: B1 DNA 1 with C9T
DNA 2: B1 DNA 2 with C22T
B5: 90-bp homoduplex (dsDNA)
DNA 1: CGCAGTGCTAAGACGTACCATGCAACCGTAGATTCTAACTGCCAGGCACCAGTGTCAGCGTCGTATAGTCGTGTATAGATCGTTATCTGC
DNA 2: GCAGATAACGATCTATACACGACTATACGACGCTGACACTGGTGCCTGGCAGTTAGAATCTACGGTTGCATGGTACGTCTTAGCACTGCG
B6: 30-GT (dsDNA)
DNA 1: B1 DNA 1 with C9G
DNA 2: B1 DNA 2 with C22T
B7: 30-2ΔT (dsDNA)
DNA 1: B1 DNA 1 with C9G
DNA 2: ATACGACGCTGACACTGGTGCCTTTGGCAGTT
B8: 30-GC (30-bp homoduplex) (dsDNA)
DNA 1: B1 DNA 1 with C9G
DNA 2: B1 DNA 2
B9: E. coli His6-MutS (natural protein, UniProt P23909 1-853, looked up)
chain: T1 sequence
B10: E. coli His6-mutS-A842E (natural protein, UniProt P23909 1-853, looked up)
chain: T1 sequence with A842E
B11: 30-AA (dsDNA)
DNA 1: B1 DNA 1 with C9A
DNA 2: B1 DNA 2 with C22A
B12: 30-AG (dsDNA)
DNA 1: B1 DNA 1 with C9A
DNA 2: B1 DNA 2 with C22G
B13: 30-GG (dsDNA)
DNA 1: B1 DNA 1 with C9G
DNA 2: B1 DNA 2 with C22G
B14: 30-CT (dsDNA)
DNA 1: B1 DNA 1
DNA 2: B1 DNA 2 with C22T

How the values were obtained:
MutS [1] = biological target: T1, MutS; test: competition
MutS [2] = biological target: T1, MutS; test: competition; remark: listed apart in the source
MutS [3] = biological target: T1, MutS; test: FRET equilibrium titration
MutS [4] = biological target: T1, MutS; test: FRET equilibrium titration; remark: listed apart in the source
MutS [5] = biological target: T1, MutS; test: stopped-flow FRET kinetics
MutS [6] = biological target: T1, MutS; test: stopped-flow FRET kinetics; remark: listed apart in the source
MutS [7] = biological target: T1, MutS; test: FRET equilibrium titration; remark: listed apart in the source
MutS [8] = biological target: T1, MutS; test: FRET equilibrium titration; remark: listed apart in the source
MutS [9] = biological target: T1, MutS; test: competition; remark: listed apart in the source
[10] = biological target: the molecule itself; test: other fluorescence titration
[11] = biological target: the molecule itself; test: other fluorescence titration; remark: listed apart in the source
MutS [12] = biological target: T1, MutS; test: stopped-flow FRET kinetics; remark: listed apart in the source
MutS [13] = biological target: T1, MutS; test: stopped-flow FRET kinetics; remark: listed apart in the source

| Binder | Kd (MutS [3]) [nM] | Kd (MutS [4]) [nM] | further results |
| --- | --- | --- | --- |
| AACTGCCAGGCACCAGTGTCAGCGTCGTAT (ssDNA) [30-ssDNA] | – | – | Kd (MutS [1]): 6500 nM; IC50 (MutS [2]): ~6200 nM |
| B1 | 410 | 300 | – |
| B2 | 70 | 80 | – |
| B3 | 97 | 154 | – |
| B4 | 321 | 291 | – |
| B5 | – | – | Kd (MutS [1]): ~3700 nM; IC50 (MutS [2]): ~3600 nM |
| B6 | – | 74 | Kd (MutS [5]): 26 nM; Kd (MutS [6]): 91 nM; Kd (MutS [7]): 69 nM; Kd (MutS [8]): ~176 nM |
| B7 | 74 | 89 | – |
| B8 | – | – | Kd (MutS [1]): 23100 nM; Kd (MutS [9]): 30500 nM |
| B9 | – | – | stoichiometry N [10]: 3.58 MutS monomers per heteroduplex; stoichiometry N [11]: 3.7 MutS monomers per heteroduplex |
| B10 | – | – | stoichiometry N [10]: 2.27 MutS monomers per heteroduplex; stoichiometry N [11]: 2.21 MutS monomers per heteroduplex |
| B11 | 108 | 214 | Kd (MutS [12]): 153 nM; Kd (MutS [13]): 63 nM |
| B12 | 251 | 319 | – |
| B13 | 137 | 168 | – |
| B14 | 331 | 324 | – |
